Here are results for one molecule from publication PMC9825155, “Cdk1-mediated threonine phosphorylation of Sam68 modulates its RNA binding, alternative splicing activity and cellular functions”.

Data set [1] has as its target T1, Sam68 N-terminal region (UniProt Q07666 1-96). Description: NMR titration; second estimate (probably Arg side chains); NMR: HSQC at 4 C (NMR buffer not given in material; purification in 50 mM sodium phosphate, 150 mM NaCl, pH 7.6 N-term / pH 7.0 C-term). Pull-down: 20 mM HEPES. The settings on record: protein: recombinant; tags: His-tag removed by TEV.
Data set [2] addresses T2, Sam68 C-terminal region (UniProt Q07666 267-368). The description is as above. The settings on record: protein: recombinant; tags: GST removed by PreScission.
Data set [3] addresses T1, Sam68 N-terminal region. Put plainly: NMR titration; one of two estimates (backbone or Arg side chains; panel assignment not clear, error suggests eight backbone resonances); text range 1-10 uM; NMR: HSQC at 4 C (NMR buffer not given in material; purification in 50 mM sodium phosphate, 150 mM NaCl, pH 7.6 N-term / pH 7.0 C-term). Pull-down: 20 mM HEPES. To be noted: protein: recombinant; tags: His-tag removed by TEV.

Data set [4] addresses T2, Sam68 C-terminal region. Put plainly: NMR titration; one of two estimates (backbone or Arg side chains; panel assignment not clear, error suggests eight backbone resonances); text range 30-70 uM; NMR: HSQC at 4 C (NMR buffer not given in material; purification in 50 mM sodium phosphate, 150 mM NaCl, pH 7.6 N-term / pH 7.0 C-term). Pull-down: 20 mM HEPES. The settings on record: protein: recombinant; tags: GST removed by PreScission.

T1 sequence (Q07666 1-96): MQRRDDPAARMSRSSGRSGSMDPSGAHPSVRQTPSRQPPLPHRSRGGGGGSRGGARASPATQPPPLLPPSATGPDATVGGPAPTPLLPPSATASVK
T2 sequence (Q07666 267-368): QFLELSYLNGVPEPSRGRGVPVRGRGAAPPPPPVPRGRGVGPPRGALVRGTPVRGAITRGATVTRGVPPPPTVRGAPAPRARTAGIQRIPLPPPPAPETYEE

B1: G8.5 RNA (ssRNA)
RNA: CUGGGUGACACACUAGCUAUAGCAUUAAAAGACCGAGCAAGU
On to B1, for which the Kd (in general, the free concentration of one partner at which half of the binding sites on the other are occupied at equilibrium, for simple one-to-one binding) with Sam68 N-terminal region [1] is 12 µM; with Sam68 C-terminal region [2], 68 µM; with Sam68 N-terminal region [3], 3.5 ± 1.2 µM; in the data set with Sam68 C-terminal region [4], 32 ± 5 µM.
